What was measured:
human OX40 [1] = target: T1, human OX40 (human, UniProt P43489 29-277); assay: flow cytometry on L/OX40 cells, FITC goat anti-human IgG
T1 construct: whole, on cells; also called hOX40; OX40 receptor
T1 sequence (looked up): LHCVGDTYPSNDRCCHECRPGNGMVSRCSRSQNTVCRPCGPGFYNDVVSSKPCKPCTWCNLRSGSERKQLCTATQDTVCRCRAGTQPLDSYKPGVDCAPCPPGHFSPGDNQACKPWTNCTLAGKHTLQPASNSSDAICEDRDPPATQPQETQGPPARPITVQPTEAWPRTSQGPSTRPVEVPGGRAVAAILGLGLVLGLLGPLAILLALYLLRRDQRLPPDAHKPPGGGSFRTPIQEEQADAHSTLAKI
Protocol: In a typical experiment, various concentrations of Ch119-43-1 were incubated with 10⁵ L/OX40 cells in PBS containing 0.5% BSA and 0.05% NaN₃ (FACS Buffer) for 1 hour at 4° C. Cells were then washed with ice-cold FACS Buffer and subjected to incubation with FITC-labeled goat anti-human IgG antibody for 30 min at 4° C. After washing with FACS Buffer, stained cells were analyzed using a FACScan flow cytometer (BD Biosciences, San Jose, Calif.).

human OX40 [2] = target: T1, human OX40; assay: cell ELISA on dried L-hOX40 versus parental L cells, anti-mouse IgG Fc HRP
Protocol: In the experiment of FIG. 10, hOX40 hybridoma supernatants were screened against L-hOX40 versus L parental cells by ELISA. […] Plates were then frozen at −20° C. for at least one day before use. For antibody binding assays, frozen cells were rehydrated with PBS and washed with wash buffer containing PBS plus 0.05% Tween 20, and blocked with 2% BSA in wash buffer. Conditioned cells were then used for binding to OX40 antibody supernatants.

human OX40 [3] = target: T1, human OX40; assay: FACS binding assay on L/hOX40 cells, PE goat anti-human IgG
human OX40 [4] = target: T1, human OX40; assay: FACS binding assay on L/OX40 cells, PE goat anti-human IgG

B1: Chimeric 119-43-1 IgG1/kappa antibody (antibody, V domains shown)
VH: EVKLEESGGGLVQPGGSMKLSCAASGFTFSDAWMDWVRQSPEKGLEWVAEIRSKANNHATYYAESVNGRFTISRDDSKSSVYLQMNSLRAEDTGIYYCTWGEVFYFDYWGQGTTLTVSS
VL: DIQMTQSPSSLSASLGGKVTITCKSSQDINKYIAWYQHKPGKGPRLLIHYTSTLQPGIPSRFSGSGSGRDYSFSISNLEPEDIATYYCLQYDNLLTFGAGTKLELKR
notes: also called Ch119-43-1
An EC50 (human OX40 [1]) of 0.96 µg/mL was found for B1 in this work.

B2: mouse anti-human OX40 monoclonal antibody 106-222 (antibody, V domains shown)
VH: QIQLVQSGPELKKPGETVKISCKASGYTFTDYSMHWVKQAPGKGLKWMGWINTETGEPTYADDFKGRFAFSLETSASTAYLQINNLKNEDTATYFCANPYYDYVSYYAMDYWGHGTSVTVSS
VL: DIVMTQSHKFMSTSVRDRVSITCKASQDVSTAVAWYQQKPGQSPKLLIYSASYLYTGVPDRFTGSGSGTDFTFTISSVQAEDLAVYYCQQHYSTPRTFGGGTKLEIK
notes: Mouse hybridoma antibody; also called Mouse222
B2: binds (human OX40 [2]).

B3: Chimeric 106-222 IgG1/kappa monoclonal antibody (antibody, V domains shown)
VH: QIQLVQSGPELKKPGETVKISCKASGYTFTDYSMHWVKQAPGKGLKWMGWINTETGEPTYADDFKGRFAFSLETSASTAYLQINNLKNEDTATYFCANPYYDYVSYYAMDYWGHGTSVTVSS
VL: DIVMTQSHKFMSTSVRDRVSITCKASQDVSTAVAWYQQKPGQSPKLLIYSASYLYTGVPDRFTGSGSGTDFTFTISSVQAEDLAVYYCQQHYSTPRTFGGGTKLEIK
notes: Mouse variable regions with human gamma-1 and kappa constant regions (IgG1/kappa); also called Ch222
B3: binds (human OX40 [3]).

B4: Humanized 106-222 IgG1/kappa monoclonal antibody (antibody, V domains shown)
VH: QVQLVQSGSELKKPGASVKVSCKASGYTFTDYSMHWVRQAPGQGLKWMGWINTETGEPTYADDFKGRFVFSLDTSVSTAYLQISSLKAEDTAVYYCANPYYDYVSYYAMDYWGQGTTVTVSS
VL: DIQMTQSPSSLSASVGDRVTITCKASQDVSTAVAWYQQKPGKAPKLLIYSASYLYTGVPSRFSGSGSGTDFTFTISSLQPEDIATYYCQQHYSTPRTFGQGTKLEIK
notes: Human IgG1/kappa; also called Hu222
B4: binds (human OX40 [3]).

B5: mouse anti-human OX40 monoclonal antibody 119-122 (antibody, V domains shown)
VH: EVQLVESGGGLVQPGESLKLSCESNEYEFPSHDMSWVRKTPEKRLELVAAINSDGGSTYYPDTMERRFIISRDNTKKTLYLQMSSLRSEDTALYYCARHYDDYYAWFAYWGQGTLVTVSA
VL: DIVLTQSPASLAVSLGQRATISCRASKSVSTSGYSYMHWYQQKPGQPPKLLIYLASNLESGVPARFSGSGSGTDFTLNIHPVEEEDAATYYCQHSRELPLTFGAGTKLELK
notes: Mouse hybridoma antibody; also called Mouse122
B5: binds (human OX40 [2]).

B6: Chimeric 119-122 IgG1/kappa monoclonal antibody (antibody, V domains shown)
VH: EVQLVESGGGLVQPGESLKLSCESNEYEFPSHDMSWVRKTPEKRLELVAAINSDGGSTYYPDTMERRFIISRDNTKKTLYLQMSSLRSEDTALYYCARHYDDYYAWFAYWGQGTLVTVSA
VL: DIVLTQSPASLAVSLGQRATISCRASKSVSTSGYSYMHWYQQKPGQPPKLLIYLASNLESGVPARFSGSGSGTDFTLNIHPVEEEDAATYYCQHSRELPLTFGAGTKLELK
notes: Mouse variable regions with human gamma-1 and kappa constant regions (IgG1/kappa); also called Ch119
B6: binds (human OX40 [4]).

B7: Humanized 119-122 IgG1/kappa monoclonal antibody (antibody, V domains shown)
VH: EVQLVESGGGLVQPGGSLRLSCAASEYEFPSHDMSWVRQAPGKGLELVAAINSDGGSTYYPDTMERRFTISRDNAKNSLYLQMNSLRAEDTAVYYCARHYDDYYAWFAYWGQGTMVTVSS
VL: EIVLTQSPATLSLSPGERATLSCRASKSVSTSGYSYMHWYQQKPGQAPRLLIYLASNLESGVPARFSGSGSGTDFTLTISSLEPEDFAVYYCQHSRELPLTFGGGTKVEIK
notes: Human IgG1/kappa; also called Hu119
B7: binds (human OX40 [4]).

— patent US20160068604A1 (University of Texas, published 2016)
